Reference: US20140377215A1 (BOARD OF TRUSTEES OF THE UNIVERSITY OF ARKANSAS, published 2014)

Key:
[1] = target: [(POG)3PCG(POG)4]3; test: 1H-15N HSQC NMR titration
[2] = target: [11PROXYL-(POG)3PCG(POG)4]3; test: 1H-15N HSQC NMR titration

B1: collagen-binding domain (CBD), s3b (Gly893-Lys1008) peptide derived from Clostridium histolyticum cl (other)
chain: GNEKLKEKENNDSSDKATVIPNFNTTMQGSLLGDDSRDYYSFEVKEEGEVNIELDKKDEFGVTWTLHPESNINDRITYGQVDGNKVSNKVKLRPGKYYLLVYKYSGSGNYELRVNK
notes: range 893-1008
- binding result [1]: binds
- binding result [2]: binds
